Measured values from IntAct's records for PubMed 11283256.

B1: Serine/threonine-protein kinase MRCK alpha (Homo sapiens), Q5VT25 (parent)
chain: MSGEVRLRQLEQFILDGPAQTNGQCFSVETLLDILICLYDECNNSPLRREKNILEYLEWAKPFTSKVKQMRLHREDFEILKVIGRGAFGEVAVVKLKNADKVFAMKILNKWEMLKRAETACFREERDVLVNGDNKWITTLHYAFQDDNNLYLVMDYYVGGDLLTLLSKFEDRLPEDMARFYLAEMVIAIDSVHQLHYVHRDIKPDNILMDMNGHIRLADFGSCLKLMEDGTVQSSVAVGTPDYISPEILQAMEDGKGRYGPECDWWSLGVCMYEMLYGETPFYAESLVETYGKIMNHKERFQFPAQVTDVSENAKDLIRRLICSREHRLGQNGIEDFKKHPFFSGIDWDNIRNCEAPYIPEVSSPTDTSNFDVDDDCLKNSETMPPPTHTAFSGHHLPFVGFTYTSSCVLSDRSCLRVTAGPTSLDLDVNVQRTLDNNLATEAYERRIKRLEQEKLELSRKLQESTQTVQALQYSTVDGPLTASKDLEIKNLKEEIEKLRKQVTESSHLEQQLEEANAVRQELDDAFRQIKAYEKQIKTLQQEREDLNKELVQASERLKNQSKELKDAHCQRKLAMQEFMEINERLTELHTQKQKLARHVRDKEEEVDLVMQKVESLRQELRRTERAKKELEVHTEALAAEASKDRKLREQSEHYSKQLENELEGLKQKQISYSPGVCSIEHQQEITKLKTDLEKKSIFYEEELSKREGIHANEIKNLKKELHDSEGQQLALNKEIMILKDKLEKTRRESQSEREEFESEFKQQYEREKVLLTEENKKLTSELDKLTTLYENLSIHNQQLEEEVKDLADKKESVAHWEAQITEIIQWVSDEKDARGYLQALASKMTEELEALRNSSLGTRATDMPWKMRRFAKLDMSARLELQSALDAEIRAKQAIQEELNKVKASNIITECKLKDSEKKNLELLSEIEQLIKDTEELRSEKGIEHQDSQHSFLAFLNTPTDALDQFERSPSCTPASKGRRTVDSTPLSVHTPTLRKKGCPGSTGFPPKRKTHQFFVKSFTTPTKCHQCTSLMVGLIRQGCSCEVCGFSCHITCVNKAPTTCPVPPEQTKGPLGIDPQKGIGTAYEGHVRIPKPAGVKKGWQRALAIVCDFKLFLYDIAEGKASQPSVVISQVIDMRDEEFSVSSVLASDVIHASRKDIPCIFRVTASQLSASNNKCSILMLADTENEKNKWVGVLSELHKILKKNKFRDRSVYVPKEAYDSTLPLIKTTQAAAIIDHERIALGNEEGLFVVHVTKDEIIRVGDNKKIHQIELIPNDQLVAVISGRNRHVRLFPMSALDGRETDFYKLSETKGCQTVTSGKVRHGALTCLCVAMKRQVLCYELFQSKTRHRKFKEIQVPYNVQWMAIFSEQLCVGFQSGFLRYPLNGEGNPYSMLHSNDHTLSFIAHQPMDAICAVEISSKEYLLCFNSIGIYTDCQGRRSRQQELMWPANPSSCCYNAPYLSVYSENAVDIFDVNSMEWIQTLPLKKVRPLNNEGSLNLLGLETIRLIYFKNKMAEGDELVVPETSDNSRKQMVRNINNKRRYSFRVPEEERMQQRREMLRDPEMRNKLISNPTNFNHIAHMGPGDGIQILKDLPMNPRPQESRTVFSGSVSIPSITKSRPEPGRSMSASSGLSARSSAQNGSALKREFSGGSYSAKRQPMPSPSEGSLSSGGMDQGSDAPARDFDGEDSDSPRHSTASNSSNLSSPPSPASPRKTKSLSLESTDRGSWDP
partner: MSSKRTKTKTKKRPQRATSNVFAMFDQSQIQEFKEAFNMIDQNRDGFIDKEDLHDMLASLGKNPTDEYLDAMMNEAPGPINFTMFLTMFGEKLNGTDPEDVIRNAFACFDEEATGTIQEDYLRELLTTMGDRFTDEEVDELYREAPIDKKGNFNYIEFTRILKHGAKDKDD

Variants of: B1
Conditions: with ml12a_human MYL12A

Effect of a mutation on the interaction, decreasing interaction:
S234A
T403A
K106A
T240A
